From patent US20180142032A1 (Sanofi, published 2018) come the findings set out here.

Changes are numbered by the printed parent chain. In names and notes the source's numbering stands. Read-outs that look alike come from different tables or passages of the source.

Assay [1] has as its target T1, human LAMP1 at the cell surface (human, UniProt P11279 29-417).
T1 construct: native on tumour cells (PDX, Colo205, SW480, LS174T) or from the cloned CDS NM_005561.3 in HEK293 and HCT116; signal peptide 1-28 left out; also called huLAMP1; full length human LAMP1
T1 sequence: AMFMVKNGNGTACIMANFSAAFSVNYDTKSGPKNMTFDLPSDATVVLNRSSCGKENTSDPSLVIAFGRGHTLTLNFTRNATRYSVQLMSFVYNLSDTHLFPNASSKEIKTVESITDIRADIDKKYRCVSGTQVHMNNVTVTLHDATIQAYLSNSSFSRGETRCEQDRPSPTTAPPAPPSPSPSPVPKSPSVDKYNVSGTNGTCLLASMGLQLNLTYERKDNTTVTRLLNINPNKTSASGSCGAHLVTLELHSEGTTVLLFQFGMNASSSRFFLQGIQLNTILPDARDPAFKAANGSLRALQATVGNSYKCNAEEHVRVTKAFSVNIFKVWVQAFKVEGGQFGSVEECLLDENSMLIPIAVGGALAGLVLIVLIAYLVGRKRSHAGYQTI
Briefly: flow cytometry, HCT116 huLAMP1 clone 8. The method, then: HCT116 cells were infected by a lentiviral vector allowing stable integration of the human or the cynomolgus LAMP1 CDS in genomic DNA of cells. Individual clones with different densities of human or cynomolgus LAMP1 cell surface localization were derived from a pool of HCT116 infected cells. […] 100 μL/well of goat anti-human IgG conjugated with Alexa488 (Invitrogen; # A11013) was added for 1 h at 4° C. and washed two times with PBS 1% BSA. The antibody binding was evaluated after centrifugation and resuspension of cells in 100 μl fixing solution (paraformaldehyde at 4% in PBS). Samples were read using Galaxy® Flow Cytometry System (Partec). EC50 values were estimated using BIOST@T-SPEED software.
In general terms: Flow cytometry measures light scatter and fluorescence of single cells or particles in a stream.

For assay [2], the target named is T2, cynomolgus monkey LAMP1 at the cell surface (cynomolgus monkey, UniProt P11279 29-417 (human entry)).
T2 construct: also called cynoLAMP1; cynomolgus LAMP1
T2 chain: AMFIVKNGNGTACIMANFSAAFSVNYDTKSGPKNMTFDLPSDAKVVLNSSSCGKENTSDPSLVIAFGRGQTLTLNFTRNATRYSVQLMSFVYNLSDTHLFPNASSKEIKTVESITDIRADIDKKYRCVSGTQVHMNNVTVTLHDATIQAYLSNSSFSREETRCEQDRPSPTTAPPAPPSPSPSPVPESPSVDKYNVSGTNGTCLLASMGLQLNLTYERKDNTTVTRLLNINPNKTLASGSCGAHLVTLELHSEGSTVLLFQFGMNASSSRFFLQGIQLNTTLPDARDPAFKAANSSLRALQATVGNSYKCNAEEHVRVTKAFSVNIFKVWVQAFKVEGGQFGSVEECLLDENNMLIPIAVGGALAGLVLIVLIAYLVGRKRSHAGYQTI
Briefly: flow cytometry.

Assay [3] addresses T2, cynomolgus monkey LAMP1 at the cell …. In words: flow cytometry, HEK293 cynoLAMP1 clone 44.
Assay [4] addresses T1, human LAMP1 at the cell surface. Briefly: cell-based or functional assay.
In assay [5] the target is T3, LAMP1::histag (human, UniProt P11279 29-382).
T3 construct: extracellular domain without signal peptide, C-terminal 6 His tag, made in HEK293 cells; also called recombinant human LAMP1; human LAMP1 (29-382)
T3 sequence: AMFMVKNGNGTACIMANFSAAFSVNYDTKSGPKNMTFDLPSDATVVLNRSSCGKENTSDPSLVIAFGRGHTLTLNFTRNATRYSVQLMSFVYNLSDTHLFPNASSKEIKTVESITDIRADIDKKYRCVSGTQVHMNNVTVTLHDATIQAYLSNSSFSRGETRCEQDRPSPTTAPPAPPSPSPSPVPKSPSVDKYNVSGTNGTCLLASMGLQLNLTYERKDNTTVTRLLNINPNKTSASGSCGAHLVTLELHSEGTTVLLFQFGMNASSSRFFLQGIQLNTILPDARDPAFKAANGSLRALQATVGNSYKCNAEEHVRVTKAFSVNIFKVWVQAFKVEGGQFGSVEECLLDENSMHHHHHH
In words: SPR (BIAcore 2000), mAb captured by anti-Fc, LAMP1 injected 1 to 256 nM. The method, then:
The binding kinetics of the murine, chimer or humanized anti-LAMP1 mAbs were determined by surface plasmon resonance assay using a BIAcore 2000 (BIAcore Inc., Uppsala, N.J.). […] A mouse anti-αhuman Fc IgG1 (BIAcore #BR-1008-39) and rabbit anti-αmurine Fc IgG1 (BIAcore #BR-1008-38) (50 μg/mL in […], pH5) were immobilized on the activated chips in all flow cells. The immobilization was carried out at a flow rate of 10 μL/min up to saturation. The chip was then blocked by injection of 70 μL of ethanolamine-HCl, pH 8.5, followed by one wash with 3 M MgCl₂ for anti-αhuman Fc IgG1 and one wash with 10 mM Glycine-HCl pH 1.7 for anti-αmurine Fc IgG1. To measure the binding of anti-LAMP1 mAbs to LAMP1, antibodies were used at 1-5 μg/mL in BIAcore running buffer (HBS-EP). […] Following completion of the injection phase, dissociation was monitored in a BIAcore running buffer at the same flow rate for 600 sec. […] Individual sensorgrams were analyzed using BIAevaluation software.
(In general: SPR reads the build-up and loss of mass on a sensor chip optically.)

Assay [6] addresses T3, LAMP1::histag. In words: ELISA on secreted human LAMP1. For orientation: An ELISA detects its analyte on a solid surface through an enzyme-linked reagent.
Assay [7] deals with T1, human LAMP1 at the cell surface. Briefly: cell-based or functional assay. This is another data set of the same source.
The target of assay [8] is T2, cynomolgus monkey LAMP1 at the cell …. In words: flow cytometry, HEK293 cynoLAMP1 clone 44.

B1: DM4-SPDB-chMAb3 (antibody, human IgG1, kappa, V domains shown)
VH: QIQLVQSGPELKKPGETVKISCKASGYIFTNYGMNWVKQAPGKGLKWMGWINTYTGESRYADDFKGRFALSLETSASTAYLQINNLENEDMATYFCAREDYYGNSPWFFDVWGAGTTVTVSS
VL: DIQMTQTTSSLSASLGDRVTISCRASQGINKYLNWYQQKPDGTVKLLIYYTSTLHSGVPSRFSGSGSGTDYSLTINNLEPEDIATYYCQQYTRLPFTFGSGTKLEIKR
modifications: DM4 linked through SPDB, average DAR 3.7 per antibody; sites not stated
What is called EC50 is the concentration that produces a half-maximal response. In the case of B1, the EC50 in assay [1] turned out to be 9.1 nM; in assay [3], 6.1 nM. For the same molecule, in assay [2], the “Ratio of EC50s (cynoLAMP1 against huLAMP1)” value (“Ratio of EC50s” below) came to 0.7. The “cytotoxicity IC50, HCT116 huLAMP1 clone 8” value (from here on “cytotoxicity IC50”) in assay [4] stood at 0.06 nM.

B2: chMAb3_VLR24-R93 (antibody, human IgG1, kappa, V domains shown)
VH: B1 VH
VL: B1 VL
notes: chimeric, human IgG1, Ckappa; VL with N24R and K93R
One may read the Kd as the concentration at which binding is half-saturated. For the molecule B2, the Kd with LAMP1::histag [5] was determined as 7.2 nM.

B3: huMAb1_negB (antibody, human IgG1, kappa)
heavy: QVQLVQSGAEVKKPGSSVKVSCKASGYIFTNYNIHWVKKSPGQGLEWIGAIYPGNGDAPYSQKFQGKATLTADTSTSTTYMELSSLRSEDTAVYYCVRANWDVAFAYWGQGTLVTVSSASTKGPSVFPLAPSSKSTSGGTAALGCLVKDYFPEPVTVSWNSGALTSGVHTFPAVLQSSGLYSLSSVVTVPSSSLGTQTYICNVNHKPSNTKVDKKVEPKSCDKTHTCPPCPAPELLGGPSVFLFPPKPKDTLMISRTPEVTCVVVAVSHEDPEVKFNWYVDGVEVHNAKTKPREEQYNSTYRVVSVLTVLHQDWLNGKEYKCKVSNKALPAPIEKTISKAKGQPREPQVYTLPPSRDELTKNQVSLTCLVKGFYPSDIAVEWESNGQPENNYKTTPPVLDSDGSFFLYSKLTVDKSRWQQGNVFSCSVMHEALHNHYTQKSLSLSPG
light: DIQMTQSPSSLSASVGDRVTITCKASQDIDRYMAWYQDKPGKAPRLLIHDTSTLQSGVPSRFSGSGSGRDYTLTISNLEPEDFATYYCLQYDNLWTFGGGTKVEIKRTVAAPSVFIFPPSDEQLKSGTASVVCLLNNFYPREAKVQWKVDNALQSGNSQESVTEQDSKDSTYSLSSTLTLSKADYEKHKVYACEVTHQGLSSPVTKSFNRGEC
notes: LC1 and HCnegB (VH1-huIgG1_266A, D265A by Kabat)
Molecule B3 had an EC50 with LAMP1::histag [6] of 0.07 nM.

B4: chMAb2can (antibody, human IgG1, kappa, V domains shown)
VH: QVQLQQSAAELARPGASVKMSCKASGYTFTSYTMHWVKQRPGQGLEWIGYFNPSSGYPEYNQKFKDKTTLTADKSSNTAFIQLNSLTSEDSAVYYCSRGYYYGSRGYALDFWGQGTSVTVSS
VL: NIVLTQSPASLAVSLGQRATISCRASESVDINGNTFMHWYQQKPGQSPKLLIYAASNLESGVPARFSGSGSGTDFTFTIDPVEADDVATYYCQQNIEDPWTFGGGTKLEIKR
Molecule B4 had a Kd with LAMP1::histag [5] of 68.8 nM.

B5: DM4-SPDB-chMAb2 (antibody, human IgG1, kappa, V domains shown)
VH: B4 VH
VL: B4 VL
modifications: DM4 linked through SPDB, average DAR 3.7 per antibody; sites not stated
notes: also called DM4-SPDB-chMAb2can
Consider B5, for which the EC50 in assay [1] was 5.5 nM; in assay [3], 12.8 nM. For the same molecule, the “Ratio of EC50s” value in assay [2] was determined as 2.3. For the same molecule, in assay [4], the “cytotoxicity IC50” value came out at 0.07 nM.

B6: DM4-SPDB-chMAb1 (antibody, human IgG1, kappa)
heavy: not shown
light: DIQMTQSPPSLSASLGGKVTITCKASQDIDRYMAWYQDKPGKGPRLLIHDTSTLQPGIPSRFSGSGSGRDYSFSISNLEPEDIATYYCLQYDNLWTFGGGTKLEIKRTVAAPSVFIFPPSDEQLKSGTASVVCLLNNFYPREAKVQWKVDNALQSGNSQESVTEQDSKDSTYSLSSTLTLSKADYEKHKVYACEVTHQGLSSPVTKSFNRGEC
modifications: DM4 linked through SPDB, average DAR 4.5 per antibody; sites not stated
notes: antibody drug conjugate of chMAb1; also called chMAb1-SPDB-DM4
In assay [1], B6 yielded an EC50 of 6.6 nM. Further, the “Ratio of EC50s” value in assay [2] was found to be 1. A half-maximal effect in assay [3] (EC50) was put at 6.6 nM. Moreover, in assay [7], the “Cytotoxic activity IC50 (Cell Titer-Glo), HCT116-LAMP1 clone 5, antigen density 451 000” value came to 0.2 nM and the “Cytotoxic activity IC50 (Cell Titer-Glo), HCT116-LAMP1 clone 8, antigen density 160 000” value came out at 0.1 nM.

B7: huMAb1_2 (antibody, human IgG1, kappa, V domains shown)
VH: QVQLVQSGAELVKPGASVKMSCKASGYIFTNYNIHWVKKSPGQGLEWIGAIYPGNGDAPYSQKFQDRATLTADTSSSTTYMELSSLTSEDSAVYYCVRANWDVAFAYWGQGTLVSVSS
VL: DIQMTQSPPSLSASVGGKVTITCKASQDIDRYMAWYQDKPGKGPKLLIHDTSTLQPGIPSRFSGSGSGRDYSFSISNLEPEDIATYYCLQYDNLWTFGGGTKLEIKR
notes: humanized, VH2-huIgG1 and VL2-huCk
As for B7, the EC50 amounted to 13.3 nM in assay [8] and 6.6 nM in assay [1].

B8: DM4-SPDB-huMAb1_2 (antibody, human IgG1, kappa, V domains shown)
VH: B7 VH
VL: B7 VL
modifications: DM4 linked through SPDB, average DAR 4.05 per antibody; sites not stated
As for B8, in assay [4], the “cytotoxicity IC50” value was 0.07 nM.

B9: huMAb1_3 (antibody, human IgG1, kappa, V domains shown)
VH: B7 VH with K38R, K39Q, S40A, S61A, D66G, S91T, S115T
VL: B7 VL with P9S, D38Q, I58V, F73L, S74T, N77S
notes: humanized, VH3-huIgG1 and VL3-huCk
In the case of B9, the EC50 in assay [8] was found to be 17.7 nM; in assay [1], 10.3 nM.

B10: DM4-SPDB-huMAb1_3 (antibody, human IgG1, kappa, V domains shown)
VH: B7 VH with K38R, K39Q, S40A, S61A, D66G, S91T, S115T
VL: B7 VL with P9S, D38Q, I58V, F73L, S74T, N77S
modifications: DM4 linked through SPDB, average DAR 3.5 per antibody; sites not stated
For B10, the “cytotoxicity IC50” value in assay [4] turned out to be 0.12 nM.
